One data set has as its system E. coli NST74. Briefly: Toxicity of pHCA and pHS to the cells. The class given is cell-based. The conditions noted are these: previous studies.
The target in data set [1] is TAL activity of the PAL/TAL enzyme (Rhodotorula toruloides, UniProt P11544). Briefly: Inhibition of TAL activity by pHCA. The data set is classed as biochemical, R. glutinis. The text has this:
(§1) An E. coli strain containing the wild type pal/tal gene (PAL/TAL ratio of 2.0) uses both PAL and TAL routes to convert glucose to both CA and pHCA. […] Based on the kinetic information it is expected that the presence of phenylalanine would interfere with the TAL activity of the enzyme.

Data set [2] is described as follows: Characterization of purified PDC enzymes (pHCA as substrate). The conditions noted are these: PDC enzyme. The data set is classed as biochemical. As to the method: The reaction was initiated by the addition of 1.0 μL of enzyme to a 1.0 mL solution containing 25 mM phosphate buffer, pH 6.0, and 0.2 mM pHCA in a plastic, UV transparent cuvette. The reaction was then followed for 5 minutes spectrophotometrically at 315 nm at room temperature, using a molar extinction coefficient of […] for pHCA disappearance. The specific activity was expressed as micromoles of pHCA degraded per minute per milligram of protein.
The characteristics of the PDC enzymes isolated from L. plantarum and B. subtilis were obtained using standard spectrometric and electrophoretic techniques and are listed in Table 5.

Data set [3] in a line: TAL/PAL activity ratio of wild type and mutant PAL/TAL enzymes, separate TAL and PAL measurements in whole cells. Particulars: ratio of TAL catalytic activity to PAL catalytic activity. The class given is biochemical. As to the method:
In order to select for those mutants having genes encoding proteins with enhanced TAL activity, a selection system based on the reversibility of the tyrosine to PHCA reaction was developed. It will be appreciated that the TAL activity responsible for the conversion of tyrosine to pHCA is in a state of equilibrium with the opposite reaction. Mutant genes were cloned by standard methods into E. coli tyrosine auxotrophs, unable to grow in the absence of tyrosine. Transformants were plated on tyrosine minus medium in the presence of suitable concentrations of pHCA. Those colonies which grew under these conditions were picked and analyzed for the presence of the mutant gene. In this fashion, a gene was isolated that expressed an enzyme having a catalytic efficiency of about 12.6×10^3 M^−1sec^−1 and a ratio of TAL catalytic activity to PAL catalytic activity of 1.7 compared to 0.5 for the wild type.
A simple method is disclosed that relies on separate measurements of the TAL and PAL activities in whole cells. The ratio of TAL to PAL activity then may be calculated and quickly compared to wild type activity, to monitor changes in the bio-catalyst activity.
Using the above approach Applicants have identified a variety of mutant PAL enzymes that have increased TAL activity, compared to the wild type gene. These mutants were identified using the methods of mutagenesis and screening described above. The mutants, the altered amino acid residues, and the TAL/PAL activity are summarized below.

The nature of data set [4]: Kinetic studies with the PAL/TAL enzyme (Vmax, PAL/TAL ratio). The data set is classed as biochemical.
Description: as §1

Bounds are passed on as bounds.

The term Ki denotes the dissociation constant of the complex between target and ligand, obtained from inhibition or displacement. The term Km denotes the concentration of substrate that gives half-maximal velocity.

As to `O=C(O)C=Cc1ccc(O)cc1` [pHCA, para-Hydroxycinnamic acid], in the data set on E. coli NST74, the “toxic to the cells” value is on record as “toxic”. This molecule had a Ki in data set [1] of 16 µM.

Consider `C=Cc1ccc(O)cc1` [pHS, para-Hydroxystyrene], for which the “toxic to the cells” value with E. coli NST74 was “toxic”. In addition, in the data set on E. coli NST74 (as low as), the “concentration showing toxicity to the cells” value was not below 500 µg/mL.

B1: L. plantarum: para-hydroxycinnamic acid decarboxylase (pdc1) from L. plantarum, SEQ ID NO:4, expressed in E. coli and purified (protein, listed as Lactobacillus plantarum)
chain: MTKTFKTLDDFLGTHFIYTYDNGWEYEWYAKNDHTVDYRIHGGMVAGRWVTDQKADIVMLTEGIYKISWTEPTGTDVALDFMPNEKKLHGTIFFPKWVEEHPEITVTYQNEHIDLMEQSREKYATYPKLVVPEFANITYMGEGQNNEDVISEAPYKEMPNDIRNGKYLIKTTIV
Regarding B1, the Km in data set [2] was determined as 1400 µM.

B2: Wild Type PAL: wild type phenylalanine-tyrosine ammonia lyase (pal/tal) enzyme from R. glutinis, SEQ ID NO:2 (protein, listed as Rhodotorula glutinis)
chain: MAPSLDSISHSFANGVASAKQAVNGASTNLAVAGSHLPTTQVTQVDIVEKMLAAPTDSTLELDGYSLNLGDVVSAARKGRPVRVKDSDEIRSKIDKSVEFLRSQLSMSVYGVTTGFGGSADTRTEDAISLQKALLEHQLCGVLPSSFDSFRLGRGLENSLPLEVVRGAMTIRVNSLTRGHSAVRLVVLEALTNFLNHGITPIVPLRGTISASGDLSPLSYIAAAISGHPDSKVHVVHEGKEKILYAREAMALFNLEPVVLGPKEGLGLVNGTAVSASMATLALHDAHMLSLLSQSLTAMTVEAMVGHAGSFHPFLHDVTRPHPTQIEVAGNIRKLLEGSRFAVHHEEEVKVKDDEGILRQDRYPLRTSPQWLGPLVSDLIHAHAVLTIEAGQSTTDNPLIDVENKTSHHGGNFQAAAVANTMEKTRLGLAQIGKLNFTQLTEMLNAGMNRGLPSCLAAEDPSLSYHCKGLDIAAAAYTSELGHLANPVTTHVQPAEMANQAVNSLALISARRTTESNDVLSLLLATHLYCVLQAIDLRAIEFEFKKQFGPAIVSLIDQHFGSAMTGSNLRDELVEKVNKTLAKRLEQTNSYDLVPRWHDAFSFAAGTVVEVLSSTSLSLAAVNAWKVAAAESAISLTRQVRETFWSAASTSSPALSYLSPRTQILYAFVREELGVKARRGDVFLGKQEVTIGSNVSKIYEAIKSGRINNVLLKMLA
For B2, the TAL/PAL ratio in data set [3] was determined as 0.5. In addition, in data set [4] (previous kinetic studies), the “Vmax for PAL” value is reported as 5.5 and the “Vmax for TAL” value was determined as 0.76. For the same molecule, the PAL/TAL ratio in data set [4] (wild type pal/tal gene in E. coli) stood at 2.0.

B3: RM120-1: mutant TAL enzyme, SEQ ID NO:14 (protein)
chain: MAPSLDSISHSFANGVASAKQAVNGASTNLAVAGSHLPTTQVTQVDIVEKMLAAPTDSTLELDGYSLNLGDVVSAARKGRPVRVKDSDEIRSKIDKSVEFLRSQLSMSVYGVTTGFGGSADTRTEXAISLQKALLEHXLCGVLPSSFDSFRLGRGLENSLPLEVVRGAMTIRVNSLTRGHSAVRLVVLEALTNFLNHGITPIVPLRGTISASGDLSPLSYIAAAISGHPDSKVHVVHEGKEKILYAREAMALFNLEPVVLGPKEGLGLVNGTAVSASMATLALHDAHMLSLLSQSLTAMTVEAMVGHAGSFHPFLHDVTRPHPTQIEVAGNIRKLLEGSRFAVHHEEEVKVKDDEGILRQDRYPLRTSPQWLGPLVSDLIHAHAVLTIEAGQSTTDNPLIDVENKTSHHGGNFQAAAVANTMEKTRLGLAQIGKLNFTQLTEMLNAGMNRGLPSCLAAEDPSLSYHCKGLDIAAAAYTSELGHLANPVTTHVQPAEMANQAVNSLALISARRTTESNDVLSLLLATHLYCVLQAIDLRAXEFEFKKQFGPAIVSLIDQHFGSAMTGSNLRDELVEKVNKTLAKRLEQTNSYDLVPRWHDAFSFAAGTVVEVLSSTSLSLAAVNAWKVAAAESAISLTRQVRETFWSAASTSSPALSYLSPRTQILYAFVREELGVKARRGDVFLGKQEVTIGSNVSKIYEAIKSGRINNVLLKMLA
modifications: Mutant from Rhodotorula glutinis
Regarding B3, in data set [3], the TAL/PAL ratio came out at 7.2.

B4: RM120-4: mutant TAL enzyme, SEQ ID NO:16 (protein)
chain: MAPSLDSISHSFANGVASAKQAVNGASTNLAVAGSHLPTTQVTQVDIVEKMLAAPTDSTLELDGYSLNLGDVVSAARKGRPVRVKDSDEIRSKIDKSVEFLRSQLSMSVYGVTTGFGGSADTRTEDAISLQKALLEHQLCGVLPSSFDSFRLGRGLENSLPLEVVRGAMTIRVNSLTRGHXAVRLVVLEALTNFLNHGITPIVPLRGTISASGDLSPLSYIAAAISGHPDSKVHXVHEGKEKILYAREAMALFNLEPVVLGPKEGLGLVNGTAVSASMATLALHDAHMLSLLSQSLTAMTVEAMVGHAGSFHPFLHDVTRPHPTQIEVAGNIRKLLEGSRFAVHHEEEVKVKDDEGILRQDRYPLRTSPQWLGPLVSDLIHAHAVLTIEAGQSTTDNPLIDVENKTSHHGGNFQAAAVANTMEKTRLGLAQIGKLNFTQLTEMLNAGMNRGLPSCLAAEDPSLSYHCKGLDIAAAAYTSELGHLANPVTTHVQPAEMANQAVNSLALISARRTTESNDVLSLLLATHLYCVLQAIDLRAXEFEFKKQFGPAIVSLIDQHFGSAMTGSNLRDELVEKVNKTLAKRLEQTNSYDLVPRWHDAFSFAAGTVVEVLSSTSLSLAAVNAWKVAAAESAISLTRQVRETFWSAASTSSPALSYLSPRTQILYAFVREELGVKARRGDVFLGKQEVTIGSNVSKIYEAIKSGRINNVLLKMLA
modifications: Mutant from Rhodotorula glutinis
For the molecule B4, the TAL/PAL ratio in data set [3] is listed as 2.0.

B5: RM120-7: mutant TAL enzyme, SEQ ID NO:17 (protein)
chain: MAPSLDSISHSFANGVASAKQAVNGASTNLAVAGSHLPTTQVTQVDIVEKMLAAPTDSTLELDGYSLNLGDVVSAARKGRPVRVKDSDEIRSKIDKSVEFLRSQLSMSVYGVTTGFGGSADTRTEDAISLQKALLEHQLCGVLPSSFDXFRLGRGLENSLPLEVVRGAMTIRVNSLTRGHSAVRLVVLEALTNFLNHGITPXVPLRGTISASGDLSPLSYIAAAISGHPDSKVHVVHEGKEKILYAREAMALFNLEPVVLGPKEGLGLVNGTAVSASMATLALHDAHMLSLLSQSLTAMTVEAMVGHAGSFHPFLHDVTRPHPTQIEVAGNIRKLLEGSRFAVHHEEEVKVKDDEGILRQDRYPLRTSPQWLGPLVSDLIHAHAVLTIEAGQSTTDNPLIDVENKTSHHGGNFQAAAVANTMEKTRLGLAQIGKLNFTQLTEMLNAGMNRGLPSCLAAEDPSLSYHCKGLDIAAAAYTSELGHLANPVTTHVQPAEMANQAVNSLALISARRTTESNDVLSLLLATHLYCVLQAIDLRAXEFEFKKQFGPAIVSLIDQHFGSAMTGSNLRDELVEKVNKTLAKRLEQTNSYDLVPRWHDAFSFAAGTVVEVLSSTSLSLAAVNAWKVAAAESAISLTRQVRETFWSAASTSSPALSYLSPRTQILYAFVREELGVKARRGDVFLGKQEVTIGSNVSKIYEAIKSGRINNVLLKMLA
modifications: Mutant from Rhodotorula glutinis
Consider B5, for which the TAL/PAL ratio in data set [3] was 0.8.

B6: B. subtilis: para-hydroxycinnamic acid decarboxylase (pdc2) from B. subtilis, SEQ ID NO:6, expressed in E. coli and purified (protein, listed as Bacillus subtilis)
chain: MENFIGSHMIYTYENGWEYEIYIKNDHTIDYRIHSGMVAGRWVRDQEVNIVKLTEGVYKVSWTEPTGTDVSLNFMPNEKRMHGIIFFPKWVHEHPEITVCYQNDHIDLMKESREKYETYPKYVVPEFAEITFLKNEGVDNEEVISKAPYEGMTDDIRAGRL
Consider B6, for which, in data set [2], the Km was determined as 1300 µM.

B7: RM492-1: mutant TAL enzyme, SEQ ID NO:18 (protein)
chain: MAPSLDSISHSFANGVASAKQAVNGASTNLAVAGSHLPTTQVTQVDIVEKMLAAPTDSTLELDGYSLNLGDVVSAARKGRPVRVKDSDEIRSKIDKSVEFLRSQLSMSVYGVTTGFGGSADTRTEDAISLQKALLEHQLCGVLPSSFDSFRLGRGLENSLPLEVVRGAMTIRVNSLTRGHSAVRLVVLEALTNFLNHGITPIVPLRGTISASGDLSPLSYIAAAISGHPDSKVHVVHEGKEKILYAREAMALFNLEPVVLGPKEGLGLVNGTAVSASMATLALHDAHMLSLLSQSLTAMTVEAMVGHAGSFHPFLHDVTRPHPTQIEVAGNIRKLLEGSRFAVHHEEEVKVKDDEGILRQDRYPLRTSPQWLGPLVSDLIHAHAVLTIEAGQSTTDNPLIDVENKTSHHGGNFQAAAVANTMEKTRLGLAQIGKLNFTQLTEMLNAGMNRGLPSCLAAEDPSLSYHCKGLDIAAAAYTSELGHLANPVTTHVQPAEMANQAGNSLALISARRTTESNDVLSLLLATHLYCVLQAIDLRATEFEFKKQFGPAIVSLIDQHFGSAMTGSNLRDELVEKVNKTLAKRLEQTNSYDLVPRWHDAFSFAAGTVVEVLSSTSLSLAAVNAWKVAAAESAISLTRQVRETFWSAASTSSPALSYLSPRTQILYAFVREELGVKARRGDVFLGKQEVTIGSNVSKIYEAIKSGRINNVLLKMLA
modifications: not fully specified
As to B7, the TAL/PAL ratio in data set [3] is 2.0.

The values above are taken from patent publication US7229806B2, “Microbial conversion of glucose to para-hydroxystyrene” (E. I. du Pont de Nemours and Company, priority 2002, dated 2007).
